US20220332804A1 (CSL INNOVATION, published 2022)
Changes are numbered by the printed parent chain.

Key:
Experiment in all cases: SPR, antibody captured, C2 as analyte;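 further: biacore SPR at 37 °C, anti-C2 mAbs captured via goat anti-human IgG on CM5 chips, double-referenced sensorgrams fit to a 1:1 kinetic or steady-state model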
[1] = target: T1, human C2 K244A (human, UniProt P06681 21-752)
T1 sequence: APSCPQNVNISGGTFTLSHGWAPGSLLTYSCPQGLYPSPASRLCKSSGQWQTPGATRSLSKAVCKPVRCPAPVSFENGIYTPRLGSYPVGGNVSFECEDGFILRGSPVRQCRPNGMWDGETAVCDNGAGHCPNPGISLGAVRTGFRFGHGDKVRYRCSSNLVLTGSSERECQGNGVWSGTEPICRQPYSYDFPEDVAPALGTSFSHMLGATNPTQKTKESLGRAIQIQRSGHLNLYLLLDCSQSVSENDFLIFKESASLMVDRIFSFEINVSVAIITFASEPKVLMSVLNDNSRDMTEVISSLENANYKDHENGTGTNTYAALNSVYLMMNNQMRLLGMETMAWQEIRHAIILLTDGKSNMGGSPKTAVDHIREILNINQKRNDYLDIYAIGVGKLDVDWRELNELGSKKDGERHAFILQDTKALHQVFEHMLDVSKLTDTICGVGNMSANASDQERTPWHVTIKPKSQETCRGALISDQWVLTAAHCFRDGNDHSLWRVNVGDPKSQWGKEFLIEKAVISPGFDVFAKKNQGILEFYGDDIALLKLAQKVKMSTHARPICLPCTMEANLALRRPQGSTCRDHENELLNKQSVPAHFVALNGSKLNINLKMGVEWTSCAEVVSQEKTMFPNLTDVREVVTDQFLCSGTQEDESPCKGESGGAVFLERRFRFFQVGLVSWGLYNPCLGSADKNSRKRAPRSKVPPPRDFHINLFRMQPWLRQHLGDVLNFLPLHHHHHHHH

[2] = target: T2, human C2 S278A (human, UniProt P06681 21-752)
T2 sequence: T1 sequence with A224K, S258A

[3] = target: T3, human C2 Y558A (human, UniProt P06681 21-752)
T3 sequence: T1 sequence with A224K, Y538A

[4] = target: T4, human C2 K430A (human, UniProt P06681 21-752)
T4 sequence: T1 sequence with A224K, K410A

B1: RF16-226 (antibody, human IgG4 S228P, lambda)
heavy: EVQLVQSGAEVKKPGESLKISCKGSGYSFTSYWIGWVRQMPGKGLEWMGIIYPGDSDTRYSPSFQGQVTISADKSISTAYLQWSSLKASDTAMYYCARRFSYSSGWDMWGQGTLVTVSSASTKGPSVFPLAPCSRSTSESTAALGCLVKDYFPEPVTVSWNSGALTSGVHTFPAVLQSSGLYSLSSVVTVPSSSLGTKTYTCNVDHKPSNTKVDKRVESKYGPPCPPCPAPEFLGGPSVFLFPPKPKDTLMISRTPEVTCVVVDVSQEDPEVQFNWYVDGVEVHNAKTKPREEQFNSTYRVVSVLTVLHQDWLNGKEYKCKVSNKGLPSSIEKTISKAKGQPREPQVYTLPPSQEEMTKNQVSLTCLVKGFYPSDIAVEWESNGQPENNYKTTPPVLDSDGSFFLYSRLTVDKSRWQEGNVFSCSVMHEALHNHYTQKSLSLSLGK
light: SYELTQPPSVSVSPGQTARITCSGDALTSKYVAWYQQKSGLAPLLVIYEDTRRPSGIPAKFSGSSSGSVATLTISGAHGDDEADYYCYSTDASGHQRVFGGGTKLTVLSQPKAAPSVTLFPPSSEELQANKATLVCLISDFYPGAVTVAWKADGSPVKAGVETTKPSKQSNNKYAASSYLSLTPEQWKSHRSYSCQVTHEGSTVEKTVAPTECS
notes: pH-dependent anti-C2 antibody from a phage display library; also called WT
Kd [1]: 22.7 nM | Kd [2]: 9.4 nM | Kd [3]: 158 nM | Kd [4]: 62 nM
